One data set concerns the target Dnmt3a-CD (murine, UniProt O88508 608-908). In words: EMSA; 1 uM protein, 100 uM AdoHcy; 20 mM HEPES-NaOH pH 7.5, 100 mM KCl, 1 mM EDTA, 1 mM DTT, 100 uM AdoHcy, 25 C (EMSA: + 6% glycerol, 30 min, 60 nM DNA, gel at 4 C; FP: 10 nM DNA). The conditions noted are these: protein: recombinant; tags: N-terminal 6xHis; chain copies: 2; label: fluorophore (FAM or TAMRA); no G4. (In general: In EMSA bound probe runs differently from free probe, usually more slowly.)

The target of data set [1] is T1, AIR-Dnmt3a2 (autoinhibition removed) (murine, UniProt O88508-2 1-689, Y303A;Y305A). The data set is described as above.
Data set [2] addresses T1, AIR-Dnmt3a2 (autoinhibition removed). In words: EMSA; 1 uM protein, 100 uM AdoHcy; no difference from 76Tf/95Bf-G4; 20 mM HEPES-NaOH pH 7.5, 100 mM KCl, 1 mM EDTA, 1 mM DTT, 100 uM AdoHcy, 25 C (EMSA: + 6% glycerol, 30 min, 60 nM DNA, gel at 4 C; FP: 10 nM DNA).
Another data set concerns the target M.SssI (prokaryotic (species ), UniProt P15840 1-386). In words: EMSA; 100 uM AdoHcy; 20 mM HEPES-NaOH pH 7.5, 100 mM KCl, 1 mM EDTA, 1 mM DTT, 100 uM AdoHcy, 25 C (EMSA: + 6% glycerol, 30 min, 60 nM DNA, gel at 4 C; FP: 10 nM DNA). Conditions: protein: recombinant; label: FAM; 30 bp duplex.

M.SssI, sequence (P15840 whole entry): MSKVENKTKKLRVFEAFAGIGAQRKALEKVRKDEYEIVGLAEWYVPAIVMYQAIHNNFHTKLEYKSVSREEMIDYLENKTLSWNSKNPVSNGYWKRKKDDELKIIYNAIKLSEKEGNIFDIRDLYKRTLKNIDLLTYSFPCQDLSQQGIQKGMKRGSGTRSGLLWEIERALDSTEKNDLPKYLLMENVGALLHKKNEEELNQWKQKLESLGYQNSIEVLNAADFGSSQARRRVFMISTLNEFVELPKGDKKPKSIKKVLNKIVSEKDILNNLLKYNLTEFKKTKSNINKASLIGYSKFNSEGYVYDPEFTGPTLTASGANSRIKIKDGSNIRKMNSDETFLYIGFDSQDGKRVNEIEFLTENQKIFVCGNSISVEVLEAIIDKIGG

For the molecule AGGGAGTGAGTGAGTGAGTATA (ssDNA) [22(GAGT)4f], the binding signal (with Dnmt3a-CD; in data set [1]) was roughly 4 fold weaker than 19G4f each time.

B1: 76Tf/76Bf (dsDNA)
DNA 1: TCCTTTCGCGCTTGGATCCTATGAGCGTTACTCGAGCATATGGCTCAGCTGCCAGGCACCAGTGTCAGCGTCCTAT
DNA 2: ATAGGACGCTGACACTGGTGCTTGGCAGCTGAGCCATATGCTCGAGTAACGCTCATAGGATCCAAGCGCGAAAGGA
B1: in data set [2], the binding result is given as “binds”.

B2: 30Tf/30Bf (dsDNA)
DNA 1: CTGAATACTACTTGCGCTCTCTAACCTGAT
DNA 2: ATCAGGTTAGAGAGCGCAAGTAGTATTCAG
For B2, in the data set with M.SssI, the binding result is given as “binds”.
